One series addresses T1, ASK1(1-160) (Arabidopsis thaliana, UniProt Q39255).
T1 construct: constructing the plasmid pGAD424-ASK1(1-160)[3] expressing fusion protein of ASK1 and GAL4-4AD; expressed in transfected cells; host or cells: Saccharomyces cerevisiae HF7c
T1 sequence (Q39255 1-160): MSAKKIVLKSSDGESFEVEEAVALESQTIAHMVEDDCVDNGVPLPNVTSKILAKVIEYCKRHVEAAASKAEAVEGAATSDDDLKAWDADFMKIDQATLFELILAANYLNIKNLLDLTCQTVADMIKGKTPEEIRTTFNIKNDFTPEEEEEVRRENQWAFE
Nature of the series: Yeast two-hybrid assay with ASK1. The format is cell-based. The settings on record: HF7c yeast; for binding with ASK1 in yeast two-hybrid assay: GAL4-BD fusion. The source says: As expression vectors of expressing GAL4 DNA binding domain (GAL4-BD) and ORE9 fusion protein, plasmids pGBT9-ORE9 (1-49) and pGBT9-ORE9 (50-693) were constructed. The plasmid pGBT9-ORE9 expresses a fragment of ORE9 containing N-terminal 1-49th amino acids corresponding to an F-box region of ORE9, and the plasmid pGBT9-ORE9 (50-693) expresses a fragment of ORE9 containing 50-693th amino acids from which the F-box region was removed.
First, the gene encoding the ORE9 (1-49) fragment was amplified by PCR using a primer represented by SEQ ID NO: 10 and SEQ ID NO: 11, and then inserted into BamHI and PstI restriction enzyme sites of pGBT9 (Clontech, USA) containing a 4-BD gene and a tryptophan auxotrophic selection marker gene (TRP1), thereby constructing the plasmid pGBT9-ORE9 (1-49). Similarly, the plasmid pGBT 9-ORE9 (50-693) was constructed, which expresses an ORE9 (50-693) fragment and a GAL4-BD fusion protein. In this case, oligonucletides represented by SEQ ID NO: 12 and SEQ ID NO: 13 were used as PCR primers to amplify the gene encoding the ORE9 (50-693) fragment.
Meanwhile, regarding ASK1(1-160) and ASK2(1-172) proteins used for identification of binding, pGAD424-ASK1(1-160) and pGAD424-ASK2(1-172) were constructed in such a manner that ASK1(1-160) and ASK2(1-172) are expressed in the form of a fusion protein with a […]. pGTE-ASK1(1-160) containing an ASK1(1-160) gene was digested with BamHI and PstI, and then inserted into pGAD424 (Clontech, USA) containing a GAL4-AD gene and a leucine auxotrophic selection marker gene (LEU2), thereby constructing the plasmid pGAD424-ASK1(1-160)[3] expressing fusion protein of ASK1 and GAL4-4AD. Similarly, the plasmid pGAD424-ASK2(1-172)[4] was constructed by inserting a BamHI/PstI fragment of pGTE-ASK2(1-172) into pGAD424.
Yeast strains, HF7c, were cultured in an YPD (yeast extract, peptone, dextrose) medium or a synthetic minimal medium (SD) containing 2% dextrose.
The HF7c yeast strains grown in the medium were transformed with different combinations of the vectors constructed in the above Example 6-1) ([1+3], [2+3] and [1+4]; see the left upper portion of FIG. 7b), respectively, by the lithium acetate method (Feilotter et al., 1994). The transformants were selected in a synthetic minimal medium containing 2% dextrose. The transformants were cultured in a SD medium from which tryptophan and leucine were removed (see the right upper portion of FIG. 7b), and in a SD medium from which tryptophan, leucine and histidine were removed and which contains 2 mM 3-amino-1,2,4-triazole (3-AT) (see the left lower portion of FIG. 7b).
The transformants were grown in a synthesis minimal medium, and the grown yeast colonies were examined for β-galactosidase activities on a filter paper. […]

Another series has as its target T2, GST-ASK1 fusion protein (Arabidopsis thaliana, UniProt Q39255).
T2 construct: made in house; host or cells: Escherichia coli BL21(DE3) pLysS
T2 sequence (Q39255 1-160): T1 sequence (Q39255 1-160)
The experiment in a line: In vitro binding assay with GST-ASK1 fusion protein. The settings on record: 35S-labeled in vitro translation product; glutathione beads; GST as negative control. The source says:
In order to examine that ORE9 protein or derivatives thereof directly bind with ASK1, a GST-ASK1 fusion protein and a ^35S-labeled ORE9 protein produced by in vitro translation were subjected to in vitro binding assay. To obtain a glutathione S-transferase (GST) protein and a GST-ASK1 fusion protein, a vector pGEX (APBiotech, Co.) and a vector pGEX-ASK1 were constructed, which express the above proteins, respectively. Artificial sequences represented by SEQ ID NO: 14 and SEQ ID NO: 15 were used as PCR primers to amplify a gene encoding the ASK1 fragment. The resulting PCR product was digested with EcoRI and NcoI restriction enzymes, and inserted into the restriction enzyme sites of the pGEX vector. Escherichia coli BL21(DE3) pLysS was transformed with the resulting two vectors, and GST and GST-ASK1 fusion proteins were expressed. The GST and GST-ASK1 fusion proteins were purified by chromatography with glutathione-Sepharose 4B beads. The purified proteins was subjected to electrophoresis with SDS-polyacryamide gets, dyed with Coomassie blue, and measured for their amount. GST and GST-ASK1 fusion proteins of the same amount were added to glutathione beads, which had been previously washed with 10-fold volume of B buffer (20 mM […], pH 7.6, 150 mM sodium chloride, 10% glycerol, 0.5% NP-40, 1 mM DTT) three times. Then, the resulting proteins were adsorbed 4° C. for one hour using a rotating mixer. The provided beads were washed with 1 ml B buffer three times, and then stored in a state where the ratio of slurries relative to B buffer is 50%.
Meanwhile, a radioactivity-labeled ORE9 (1-693), the mutant type ore9 and ORE9 derivatives (1-327 and 50-693) were prepared using the in vitro transcription/translation system (Promega, USA) and [^35S]-methionine (DuPont NEN, USA). The proteins were quantitatively analyzed with SDS-PAGE and BAS radioanalytic imaging system (Japan). Then, the respective ^35S-labeled translation products of the same amount were mixed with 60 μl GST-adsorbed beads or GST-ASK1 fusion protein-absorbed beads, contained in 1 ml GB buffer (final concentration: 20 mM Tris-HCl, pH 7.5, 0.15% NP-40, 150 mM NaCl, 1 mM EDTA). The resulting beads were cultured in a rotating mixer at 4° C. for two hours, and then washed with 1 ml GB buffer four times. The washed beads were added with 30 μl of 2×SDS sample solutions, boiled for three minutes and then isolated with SDS-PAGE. The resulting gels were dried to dryness, and then exposed to X-ray film.

B1: ORE9 (1-693): complete ORE9 protein, 693 amino acids, F-box motif and 18 LRRs, SEQ ID NO: 2 (protein, listed as Arabidopsis thaliana)
chain: MASTTLSDLPDVILSTISSLVSDSRARNSLSLVSHKFLALERSTRSHLTIRGNARDLSLVPDCFRSISHLDLSFLSPWGHTLLASLPIDHQNLLALRLKFCFPFVESLNVYTRSPSSLELLLPQWPRIRHIKLLRWHQRASQIPTGGDFVPIFEHCGGFLESLDLSNFYHWTEDLPPVLLRYADVAARLTRLDLLTASFTEGYKSSEIVSITKSCPNLKTFRVACTFDPRYFEFVGDETLSAVATSSPKLTLLHMVDTASLANPRAIPGTEAGDSAVTAGTLIEVFSGLPNLEELVLDVGKDVKHSGVALEALNSKCKKLRVLKLGQFQGVCSATEWRRLDGVALCGGLQSLSIKNSGDLTDMGLVAIGRGCCKLTTFEIQGCENVTVDGLRTMVSLRSKTLTDVRISCCKNLDTAASLKAIEPICDRIKRLHIDCVWSGSEDEEVEGRVETSEADHEEEDDGYERSQKRCKYSFEEEHCSTSDVNGFCSEDRVWEKLEYLSLWINVGEFLTPLPMTGLDDCPNLEEIRIKIEGDCRGKRRPAEPEFGLSCLALYPKLSKMQLDCGDTIGFALTAPPMQMDLSLWERFFLTGIGSLSLSELDYWPPQDRDVNQRSLSLPGAGLLQECLTLRKLFIHGTAHEHFMNFLLRIPNLRDVQLRADYYPAPENDMSTEMRVGSCSRFEDQLNSRNIID
Regarding B1, the “binding with ASK1 in yeast two-hybrid assay” value in the series with ASK1(1-160) is on record as “did not exhibit positive signals for binding to ASK1”. Besides, the “binding (co-precipitation) with GST-ASK1” value with GST-ASK1 fusion protein is “directly bound to ASK1”.

B2: ORE9 (50-693): fragment of ORE9 containing 50-693th amino acids from which the F-box region was removed (protein)
chain: MKLLSSIEQACDICRLKKLKCSKEKPKCAKCLKNNWECRYSPKTKRSPLTRAHLTEVESRLERLEQLFLLIFPREDLDMILKMDSLQDIKALLTGLFVQDNVNKDAVTDRLASVETDMPLTLRQHRISATSSSEESSNKGQRQLTVSIRGNARDLSLVPDCFRSISHLDLSFLSPWGHTLLASLPIDHQNLLALRLKFCFPFVESLNVYTRSPSSLELLLPQWPRIRHIKLLRWHQRASQIPTGGDFVPIFEHCGGFLESLDLSNFYHWTEDLPPVLLRYADVAARLTRLDLLTASFTEGYKSSEIVSITKSCPNLKTFRVACTFDPRYFEFVGDETLSAVATSSPKLTLLHMVDTASLANPRAIPGTEAGDSAVTAGTLIEVFSGLPNLEELVLDVGKDVKHSGVALEALNSKCKKLRVLKLGQFQGVCSATEWRRLDGVALCGGLQSLSIKNSGDLTDMGLVAIGRGCCKLTTFEIQGCENVTVDGLRTMVSLRSKTLTDVRISCCKNLDTAASLKAIEPICDRIKRLHIDCVWSGSEDEEVEGRVETSEADHEEEDDGYERSQKRCKYSFEEEHCSTSDVNGFCSEDRVWEKLEYLSLWINVGEFLTPLPMTGLDDCPNLEEIRIKIEGDCRGKRRPAEPEFGLSCLALYPKLSKMQLDCGDTIGFALTAPPMQMDLSLWERFFLTGIGSLSLSELDYWPPQDRDVNQRSLSLPGAGLLQECLTLRKLFIHGTAHEHFMNFLLRIPNLRDVQLRADYYPAPENDMSTEMRVGSCSRFEDQLNSRNIID
For the molecule B2, the “binding with ASK1 in yeast two-hybrid assay” value with ASK1(1-160) is listed as “fails to bind with ASK1”. Besides, the “binding (co-precipitation) with GST-ASK1” value with GST-ASK1 fusion protein was “fails to bind with GST-ASK1”.

B3: ORE9(1-49): fragment of ORE9 containing N-terminal 1-49th amino acids corresponding to the F-box region (protein)
chain: MKLLSSIEQACDICRLKKLKCSKEKPKCAKCLKNNWECRYSPKTKRSPLTRAHLTEVESRLERLEQLFLLIFPREDLDMILKMDSLQDIKALLTGLFVQDNVNKDAVTDRLASVETDMPLTLRQHRISATSSSEESSNKGQRQLTVSMASTTLSDLPDVILSTISSLVSDSRARNSLSLVSHKFLALERSTRSHLT
For the molecule B3, the “growth of transformed yeast in histidine deficient medium” value with ASK1(1-160) (GAL4-BD fusion with GAL4-AD-ASK1(1-160), SD medium without tryptophan, leucine, histidine, 2 mM 3-AT) is on record as “grown in the histidine deficient medium”. In the series with ASK1(1-160) (with ASK1(1-160) plasmid, X-gal filter assay), the “β-galactosidase activity of transformed yeast” value is “exhibit the β-galactosidase activity”.

B4: ORE9 (1-327): part of ORE9 (1-327) containing the F-box region (protein, UniProt Q9SIM9 1-327, looked up, fragment)
chain: MASTTLSDLPDVILSTISSLVSDSRARNSLSLVSHKFLALERSTRSHLTIRGNARDLSLVPDCFRSISHLDLSFLSPWGHTLLASLPIDHQNLLALRLKFCFPFVESLNVYTRSPSSLELLLPQWPRIRHIKLLRWHQRASQIPTGGDFVPIFEHCGGFLESLDLSNFYHWTEDLPPVLLRYADVAARLTRLDLLTASFTEGYKSSEIVSITKSCPNLKTFRVACTFDPRYFEFVGDETLSAVATSSPKLTLLHMVDTASLANPRAIPGTEAGDSAVTAGTLIEVFSGLPNLEELVLDVGKDVKHSGVALEALNSKCKKLRVLKLGQ
Regarding B4, the “binding (co-precipitation) with GST-ASK1” value in the series with GST-ASK1 fusion protein was “co-precipitated with the GST-ASK1 fusion protein”.

The values are drawn from patent US20040123344A1, “Novel gene encoding an f-box protein which regulates leaf longevity in arabidopsis thaliana and mutant gene thereof” (priority 2000, published 2004).
